Where a SMILES comes first, the peptide text is derived from it. Where no end group is shown, it is not given here. The star is where a group is joined. pNA = O=[N+]([O-])c1ccc(N*)cc1; Tos = Cc1ccc(S(=O)(=O)*)cc1; Bz = O=C(c1ccccc1)*
T1: recombinant mMCP-6-FLAG (Mus musculus, UniProt P21845)
T1 construct: endogenous pro-peptide followed by EK-susceptible peptide (Asp-Asp-Asp-Asp-Lys) (N, cleaved yes); made in house; host or cells: baculovirus; Spodoptera frugiperda 9 for virus, Trichoplusia ni High Five insect cells for expression
T1 sequence (P21845 32-276): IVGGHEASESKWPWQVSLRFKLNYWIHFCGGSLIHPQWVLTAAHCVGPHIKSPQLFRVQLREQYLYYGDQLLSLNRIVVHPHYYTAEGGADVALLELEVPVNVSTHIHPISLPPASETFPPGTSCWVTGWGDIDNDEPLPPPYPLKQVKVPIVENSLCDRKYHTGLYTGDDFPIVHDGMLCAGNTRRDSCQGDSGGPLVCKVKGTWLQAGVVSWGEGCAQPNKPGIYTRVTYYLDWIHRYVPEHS

T2: mMCP-6/heparin complex (Mus musculus, UniProt P21845)
T2 construct: endogenous pro-peptide followed by EK-susceptible peptide (Asp-Asp-Asp-Asp-Lys) (N, cleaved yes); made in house; host or cells: baculovirus; Spodoptera frugiperda 9 for virus, Trichoplusia ni High Five insect cells for expression
T2 sequence (P21845 32-276): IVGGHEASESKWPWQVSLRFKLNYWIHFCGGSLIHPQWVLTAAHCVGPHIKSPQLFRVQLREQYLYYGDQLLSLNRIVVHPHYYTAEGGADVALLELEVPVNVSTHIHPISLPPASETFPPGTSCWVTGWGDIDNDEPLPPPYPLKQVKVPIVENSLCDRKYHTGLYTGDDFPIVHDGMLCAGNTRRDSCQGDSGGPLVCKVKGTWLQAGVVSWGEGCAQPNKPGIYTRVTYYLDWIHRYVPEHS


target: T1, recombinant mMCP-6-FLAG; assay: spectrophotometric cleavage of trypsin-susceptible p-nitroanilide substrates by EK-activated mMCP-6-FLAG; assay type: biochemical; details: in the absence of heparin
Procedure: Purified pro-EK-mMCP-6-FLAG (~100 μg in 100 μl) was separately mixed with 100 μl of a pH 5.2 buffer consisting of 50 mM sodium acetate and 5 mM calcium chloride. One μl of a solution containing 550 U of calf intestine EK (Biozyme) was added to each, and the mixture was incubated at 37° C. generally for 3 h to allow EK to activate the zymogen in the absence of heparin. The spectrophotometric method of Svendsen and coworkers (Throm. Res. 1972, 1:267-278) was used to determine whether or not mMCP-6-FLAG is enzymatically active. Generally, 1-μl samples of each activation reaction were placed in 1 ml of a pH 7.4 buffer containing 25 mM sodium phosphate, 1 mM EDTA, and 50 μg of tosyl-Gly-Pro-Lys-p-nitroanilide. The change in optical density at 405 nm was then determined after a 3-min incubation at room temperature. The ability of recombinant mMCP-6-FLAG to cleave the trypsin-susceptible substrates tosyl-Gly-Pro-Arg-p-nitroanilide, benzoyl-Ile-Glu-Gly-Arg-p-nitroanilide, benzoyl-Pro-Phe-Arg-p-nitroanilide, and acetyl-Ile-Glu-Ala-Arg-p-nitroanilide were also evaluated.

cleavage of substrate by EK-activated tryptase (mMCP-6-FLAG)	Molecule
readily cleaves	Cc1ccc(S(=O)(=O)NCC(=O)N2CCC[C@H]2C(=O)N[C@@H](CCCNC(=N)N)C(=O)Nc2ccc([N+](=O)[O-])cc2)cc1 [tosyl-Gly-Pro-Arg-p-nitroanilide] (Tos-Gly-Pro-Arg-pNA)
readily cleaves	Cc1ccc(S(=O)(=O)NCC(=O)N2CCC[C@H]2C(=O)N[C@@H](CCCCN)C(=O)Nc2ccc([N+](=O)[O-])cc2)cc1 [tosyl-Gly-Pro-Lys-p-nitroanilide] (Tos-Gly-Pro-Lys-pNA)

same assay, conditions: in the presence or absence of heparin

cleavage of substrate by mMCP-6-FLAG	Molecule
does not effectively cleave	CC[C@H](C)[C@H](NC(=O)c1ccccc1)C(=O)N[C@@H](CCC(=O)O)C(=O)NCC(=O)N[C@@H](CCCNC(=N)N)C(=O)Nc1ccc([N+](=O)[O-])cc1 [benzoyl-Ile-Glu-Gly-Arg-p-nitroanilide] (Bz-IEGR-pNA)
does not effectively cleave	N=C(N)NCCC[C@H](NC(=O)[C@H](Cc1ccccc1)NC(=O)[C@@H]1CCCN1C(=O)c1ccccc1)C(=O)Nc1ccc([N+](=O)[O-])cc1 [benzoyl-Pro-Phe-Arg-p-nitroanilide] (Bz-Pro-Phe-Arg-pNA)

target: T1, recombinant mMCP-6-FLAG; assay: screening of tryptase-specific phage peptide display library with mMCP-6-FLAG in the absence of heparin; assay type: biochemical; details: library incubated 4 times with mMCP-6-FLAG, 30 clones
Text: (§1) Screening of a Tryptase-Specific, Bacteriophage Peptide Display Library with mMCP-6--A peptide display library that encodes an altered pIII containing at its N terminus the FLAG peptide followed by an 8-residue hypervariable peptide was screened with recombinant mMCP-6-FLAG. Briefly, phage were obtained that express on their surface a pill fusion protein with an extension peptide consisting of the FLAG peptide and a hypervariable octamer peptide containing a Lys/Arg residue at the PI site. After the varied phages in the library were allowed to bind to the anti-FLAG IgG column, the immuno-affinity column was incubated with recombinant mMCP-6-FLAG in the presence or absence of heparin. Those phage recovered in the column's eluate were amplified, and the selection procedure was repeated one lo three times. By determining the nucleotide sequence of the relevant portion of the geneIII construct in each clone, the amino acid sequence of the mMCP-6-susceptible peptide in the random domain of the pIII fusion protein was deduced. To prepare the phage column used in the screening process, 10 ml of the phage-enriched supernatant was added to 2 ml of 20% polyethylene glycol (8 kDa; Sigma) and 2.5 M NaCl and the mixture incubated at 4° C. for 30 min. After a 30 min centrifugation at 10,000 g, the recombinant phage in the pellet were resuspended in 2 ml of 150 mM NaCl, 1 mM […], and 10 mM sodium phosphate, pH 7.0, and applied to a 1-ml affinity column containing the anti-FLAG M1 monoclonal antibody. The column was washed 3 times with 10 ml of the same pH 7.0 buffer to remove unbound phage. EK-activated mMCP-6-FLAG (~50 μg in 200 μl buffer) in the absence or presence of heparin glycosaminoglycan (~50 μg) was added, and the column was sealed and incubated at room temperature for 90 min. […] Log-phase E. coli were infected with the obtained phage to produce phagemid. Bacteria were again grown in 2×YT medium containing 2% glucose and the phagemid in the bacteria were converted to phage with the addition of helper phage. This screening procedure was repeated up to 4 times to select the phage in the library which are most susceptible to degradation by mMCP-6-FLAG.
(§2) E. coli was infected with resulting mMCP-6-FLAG-susceptible phage to generate phagemids. The infected bacteria were seeded onto a plate containing 1.5% agar, 2% Bacto-tryptone, 0.5% Bacto-yeast extract, 2% glucose, 0.09 M NaCl, 0.01 M MgCl2, and 100 μg/ml ampicillin. Individual clones were isolated and grown overnight at 37° C. in 2 ml of 2×YT medium containing 2% glucose with 50 μg/ml ampicillin. One ml of the overnight cultures were centrifuged at ~12,000 g for 5 min. The bacteria in the pellets were lysed and the DNAs were extracted with mini-prep method. The DNAs were digested with NotI and EcoRI restriction enzymes at 37° C. overnight. The digested DNA mini-preps were subjected to electrophoresis on a 1% agarose gel, and those individual phage clones with ~1300-bp inserts were selected for maxi-preparation of their DNAs using nucleobond DNA-binding columns (The Nest Group). The nucleotide sequences which encode the 8-mer, protease-susceptible peptide domains in the fusion proteins were determined.

Molecule	Clones (number of clones with this mMCP-6-susceptible peptide)
EEKKKHKK	1
GPRLRHPR	1
IRFARSQA	1
LCAKRLYR	1
LSTSRASI	1
NLRKRKIK	1
NSTVRKRK	1
PDNQRYIT	1
PLILRSRA	1
PPPFRRSS	1
QKRGREPR	1
QRTKRKHN	1
RKPTKKNS	1
SPRPRSTP	1
TGVHKPST	1

Further lines, results first:

Clones (number of clones with this mMCP-6-susceptible peptide)	Molecule
1	ECRQRHTR
1	FISRRVCR
1	KKIERRNT
1	LIALRSTT
1	PLPCKLDA
1	PTPLKHPR
1	PYPPKRTP
1	RQNRRPSN
1	SLALRVWR
1	SLSSRQSP
1	VRPARALH
2	VRPVKSFR

target: T2, mMCP-6/heparin complex; assay: screening of tryptase-specific phage peptide display library with mMCP-6-FLAG in the presence of heparin; assay type: biochemical; details: four rounds of treatment, equal weight amount of heparin
Text: as §1, §2

Molecule	Clones (number of clones with this mMCP-6-susceptible peptide)
RNRQKTNN	4
SVLPKLRI	1

The remaining lines, values ahead:

Clones (number of clones with this mMCP-6-susceptible peptide)	Molecule
1	PKETKQTN
2	SLSSRQSP
7	TPLLKSWL

same assay, conditions: mMCP-6/heparin complex

Molecule	susceptibility of the sequence to cleavage
RNRQKT [SEQ. ID NO. 1]	susceptible to cleavage by the mMCP-6/heparin complex

same assay, conditions: two rounds of treatment, equal weight amount of heparin

Molecule	Clones (number of clones with this mMCP-6-susceptible peptide)
PFTHKSLS	1
RNRQKTNN	11
SVLPKLRI	1

More lines, now with the values ahead:

Clones (number of clones with this mMCP-6-susceptible peptide)	Molecule
1	PKETKQTN
3	SLSSRQSP
5	TPLLKSWL

system: mouse fibronectin; assay: in vitro degradation of fibronectin by recombinant tryptases; assay type: biochemical; details: SDS-PAGE of digests
Procedure: In Vitro Degradation of Fibronectin by Recombinant mMCP-6-FLAG--Five μg of purified mouse fibronectin (Alexis) was suspended in 1 mM EDTA and 25 mM sodium phosphate, pH 7.4, containing 0.01 U EK, 0.5 μg recombinant pro-EK-mMCP-6-FLAG, 0.5 μg recombinant mMCP-6-FLAG (activated with 0.01 U EK), or 0.5 μg recombinant mMCP-7FLAG (activated with 0.01 U EK). After an incubated for various lengths of times, the resulting digests were subjected to SDS-PAGE. In one experiment, the N-terminal amino acid sequences; of the major fibronectin fragments in the mMCP-FLAG digest were determined.

Molecule	cleavage of fibronectin in vitro
mMCP-6-FLAG/heparin complex: recombinant mMCP-6-FLAG bound to heparin glycosaminoglycan (protein, UniProt P21845 32-276, looked up, C-terminal FLAG tag; complexed with heparin) Tryptase beta-2: IVGGHEASESKWPWQVSLRFKLNYWIHFCGGSLIHPQWVLTAAHCVGPHIKSPQLFRVQLREQYLYYGDQLLSLNRIVVHPHYYTAEGGADVALLELEVPVNVSTHIHPISLPPASETFPPGTSCWVTGWGDIDNDEPLPPPYPLKQVKVPIVENSLCDRKYHTGLYTGDDFPIVHDGMLCAGNTRRDSCQGDSGGPLVCKVKGTWLQAGVVSWGEGCAQPNKPGIYTRVTYYLDWIHRYVPEHS	readily cleaved

system: Swiss albino mouse skin-derived 3T3 fibroblasts; assay: adhesion and growth of fibroblasts on fibronectin-coated culture dishes; assay type: cell-based; details: 15 min at 37° C.
Procedure: However, these cells will become less adhesive and divide in vitro when they are trypsin treated. To determine if mMCP-6-FLAG could specifically alter the growth and/or adhesion of these cells, the fibroblasts were allowed to attach to replicate fibronectin-coated culture dishes and then were incubated for 15 min at 37° C. with buffer alone or buffer containing either pro-EK-mMCP-6-FLAG, mMCP-6-FLAG, mMCP-7-FLAG, or trypsin. […] SDS-PAGE/immunoblot analysis of the supernatants from the result cultures confirmed that fibronectin was degraded in the mMCP-6-FLAG-treated cultures but not in the pro-EK-mMCP-6-FLAG or mMCP-7-FLAG treated cultures.

Molecule	adhesion/shape of fibroblasts on fibronectin-coated dishes
trypsin: serine protease used as comparison in fibroblast adhesion test (protein, UniProt P00760 24-246, looked up) Serine protease 1: IVGGYTCGANTVPYQVSLNSGYHFCGGSLINSQWVVSAAHCYKSGIQVRLGEDNINVVEGNEQFISASKSIVHPSYNSNTLNNDIMLIKLKSAASLNSRVASISLPTSCASAGTQCLISGWGNTKSSGTSYPDVLKCLKAPILSDSSCKSAYPGQITSNMFCAGYLEGGKDSCQGDSGGPVVCSGKLQGIVSWGSGCAQKNKPGVYTKVCNYVSWIKQTIASN	rapidly induced the cultured fibroblasts to round up

same assay, conditions: 40 min incubation

Molecule	fibroblasts remaining attached to the culture dish
trypsin: serine protease used as comparison in fibroblast adhesion test (protein, UniProt P00760 24-246, looked up) Serine protease 1: IVGGYTCGANTVPYQVSLNSGYHFCGGSLINSQWVVSAAHCYKSGIQVRLGEDNINVVEGNEQFISASKSIVHPSYNSNTLNNDIMLIKLKSAASLNSRVASISLPTSCASAGTQCLISGWGNTKSSGTSYPDVLKCLKAPILSDSSCKSAYPGQITSNMFCAGYLEGGKDSCQGDSGGPVVCSGKLQGIVSWGSGCAQKNKPGVYTKVCNYVSWIKQTIASN	very few fibroblasts remained attached

Source: US5955431A, “Mast cell protease peptide inhibitors” (Brigham and Women's Hospital, Inc., priority 1998, dated 1999)
